# Test results: publication PMC11029812, “Liver-targeted polymeric prodrugs delivered subcutaneously improve tafenoquine therapeutic window for malaria radical cure” (Science Advances, 2024)
# Entries after “also recorded” stand apart in the source; their conditions may differ.
# Assays:
# [1] = Tissue pharmacokinetics of released TQ and its metabolites in liver, plasma and urine (LC-MS/MS); assay type: in vivo, BALB/c mice; settings: mouse, in vivo
# P. berghei = P. berghei luciferase and blood parasitemia model of causal prophylaxis; assay type: in vivo; settings: for Mice survived: 31 days, n = 5
# Method: Efficacy studies in the P. berghei mouse model of causal prophylaxis were conducted at the Walter Reed Army Institute of Research, Experimental Therapeutics Branch as previously described ([46]).
# Luciferase-expressing P. berghei ANKA sporozoites were obtained from laboratory-reared female Anopheles stephens mosquitoes as previously described ([46]). Sporozoites were recovered by the method of Li et al. ([62]) and quantitated using a hemocytometer. Sporozoites isolated from the same batch of mosquitoes were inoculated into mice on the same day to control biological variability in sporozoite preparations. Each animal was inoculated IV in the tail vein with approximately 10,000 sporozoites suspended in 0.1-ml volume on day 0.
# Age-matched, 40 young adult (7-week-old) female C57BL/6 albino mice were purchased from Charles River Laboratories (Frederick, MD). On arrival, animals were acclimated for 7 days in quarantine. Mice were housed and maintained at a temperature range of 64° to 79°F, 34 to 68% relative humidity, and a 12-hour light/dark cycle. Food and water were provided ad libitum. Animals were fed a standard rodent maintenance diet. All animal use, care, and handling was conducted under an IACUC-approved animal use protocol in an Association for Assessment and Accreditation for Laboratory Animal Care International (AAALACi)–accredited facility with a Public Health Services Animal Welfare Assurance and in compliance with the Animal Welfare Act and other federal statutes and regulations relating to laboratory animals.
# TQ was dissolved at a stock concentration of 1 mg/ml in 25% hydroxy-β-cyclodextrin acidified to pH 5 with acetic acid and diluted in DPBS for final dosing solutions. Polymers for parenteral administration were prepared in DPBS at the final dosing concentrations. All drug concentrations were calculated per the free base molecular weights of TQ. TQ parent compounds were administered intragastrically via an intragastric feeder tube. Vehicle groups (0.1 ml of DPBS) and polymer groups were administered SC in the right flank. Free TQ, vehicle, and polymers were given as a single dose on day −1. In this model, the pSVCTQ doses studied were 5.0, 7.5, or 10 mg/kg TQ equivalent.
# Whole-body IVIS imaging of bioluminescence activity from luciferase-expressing P. berghei–infected mice was performed using a PerkinElmer IVIS Spectrum. Mice were evaluated at 24, 48, and 72 hours after sporozoite inoculation to determine liver- and blood-stage malaria infection. Mice received luciferin (150 mg/kg, Gold Biotechnology, St. Louis, MO) intraperitoneally in a maximal volume of 150 μl. Three minutes after luciferin administration, the mice were anesthetized with inhaled isoflurane and positioned ventral side up in the IVIS Spectrum on a 37°C platform. The mice continued to receive isoflurane through nose cone delivery. The camera exposure times used were 1 or 5 min for the 24-, 48-, and 72-hour time points with f-stop = 1, and the large binning setting was chosen. Quantitative analysis of bioluminescence emitted from whole bodies or […] (ROI) were determined by measuring the luminescence signal intensity in photons per second using the ROI settings of the Living Image 3.0 software. The ROI, expressed in total flux of photons, was set to measure the abdominal area at the location of the liver from whole-body imaging ([62]). The data were generally found to fit a normal distribution. Means and SDs of photon measurement were calculated.
# On days 5 to 31 after infection, mice were analyzed for blood-stage infections by quantitation of malaria parasites in erythrocytes by flow cytometry. Blood (3 μl) from the mouse tail was collected directly into 0.3 ml of 1% heparinized isotonic buffer (PBS saline). After addition of 1 ml of 0.04% of glutaraldehyde for fixation, the samples were incubated at 4°C for 60 min. Cells were centrifuged at 450g for 5 min. […]
substance,measurement,setting,value
p(GalNAc-MA-co-SVCTQ-MA) [pSVCTQ],"AUC, liver","[1]; iv, 25 mg/kg",2550 μg/g liver*hour
same,"AUC, plasma","[1]; iv, 25 mg/kg",15.53 μg/ml plasma* hour
same,"Cmax, liver","[1]; iv, 25 mg/kg",57 μg/g liver
same,"Cmax, plasma","[1]; iv, 25 mg/kg",0.20 μg/ml plasma
same,Liver:plasma AUC ratio,"[1]; iv, 25 mg/kg",164
same,"Tmax, liver","[1]; iv, 25 mg/kg",8 h
same,"Tmax, plasma","[1]; iv, 25 mg/kg",2 h
same,OQTQ metabolite in urine,[1]; sc,high level
same,Reduction of the Cmax of TQ in blood,[1]; sc,over 75%
same,Reduction of the blood AUC over 14 days,[1]; sc,more than 50%
same,"AUC, liver","[1]; sc, 10 mg/kg",2422 μg/g liver*hour
same,"AUC, plasma","[1]; sc, 10 mg/kg",9.617 μg/ml plasma* hour
same,CTQ metabolite in plasma,"[1]; sc, 10 mg/kg",absence
same,"Cmax, liver","[1]; sc, 10 mg/kg",25 μg/g liver
same,"Cmax, plasma","[1]; sc, 10 mg/kg",0.10 μg/ml plasma
same,Liver:plasma AUC ratio,"[1]; sc, 10 mg/kg",252
same,OQTQ metabolite in plasma,"[1]; sc, 10 mg/kg",low
same,"Tmax, liver","[1]; sc, 10 mg/kg",8 h
same,"Tmax, plasma","[1]; sc, 10 mg/kg",24 h
same,Mice survived,"P. berghei; 5 mg/kg SC, single dose day −1",2/5
same,Blood parasitemia suppression,"P. berghei; 5 mg/kg TQ equivalent SC, single dose day −1",partial suppression of parasitemia
same,Mice survived,"P. berghei; 7.5 mg/kg SC, single dose day −1",4/5
same,Mice survived,"P. berghei; 10 mg/kg SC, single dose day −1",All mice survived
same,Mice survived,"P. berghei; 10 mg/kg SC, single dose day −1, listed as SVCTQ polymer",5/5
same,Causal prophylaxis (complete parasite suppression),"P. berghei; 10 mg/kg TQ equivalent SC, single dose day −1",100%
same,IVIS signal during days 1 to 3,"P. berghei; 10 mg/kg single dose day −1, pSVCTQ SC, TQ oral",completely suppressed
same,Activity compared to oral TQ (based on the TQ equivalent dose),"P. berghei; P. berghei prophylactic model, single dose day −1",approximately twofold; also recorded: approximately twice
